Measured values as given in patent US20220185894A1 (F STAR THERAPEUTICS, published 2022).
Substitutions are numbered along the chain they refer to.

B1: anti-human LAG-3/PD-L1 mAb2 FS18-7-36/84G09 with LALA mutation (bispecific antibody, human IgG1, kappa, L234A L235A)
heavy: EVQLVESGGGLVQPGRSLRLSCAASGFTFDDYAMHWVRQTPGKGLEWVSGISWKSNIIGYADSVKGRFTISRDNAKNSLYLQMNSLRAEDTALYYCARDITGSGSYGWFDPWGQGTLVTVSSASTKGPSVFPLAPSSKSTSGGTAALGCLVKDYFPEPVTVSWNSGALTSGVHTFPAVLQSSGLYSLSSVVTVPSSSLGTQTYICNVNHKPSNTKVDKKVEPKSCDKTHTCPPCPAPEAAGGPSVFLFPPKPKDTLMISRTPEVTCVVVDVSHEDPEVKFNWYVDGVEVHNAKTKPREEQYNSTYRVVSVLTVLHQDWLNGKEYKCKVSNKALPAPIEKTISKAKGQPREPQVYTLPPSWDEPWGEDVSLTCLVKGFYPSDIAVEWESNGQPENNYKTTPPVLDSDGSYFLYSKLTVPYDRWVWPDEFSCSVMHEALHNHYTQKSLSLSPG
light: DIQMTQSPSSLSASVGDRVTITCRASQSISSYLNWYQQKPGKAPKPLIYVASSLQSGVPSSFSGSGSGTDFTLTISSLQPEDFATYYCQQSYSNPITFGQGTRLEIKRTVAAPSVFIFPPSDEQLKSGTASVVCLLNNFYPREAKVQWKVDNALQSGNSQESVTEQDSKDSTYSLSSTLTLSKADYEKHKVYACEVTHQGLSSPVTKSFNRGEC
notes: also called FS18-7-36/84G09LALA
B2: anti-human LAG-3/PD-L1 mAb2 FS18-7-65/84G09 with LALA mutation (bispecific antibody, human IgG1, kappa, L234A L235A)
heavy: B1 heavy with Q391Y, P392A, N394Y, Y409F
light: B1 light
notes: also called FS18-7-65/84G09 LALA; F518-7-65/84G09LALA
B3: anti-mouse LAG-3/FITC mAb2 FS18-7-108-29/4420 comprising LALA mutation (bispecific antibody, human IgG1, kappa, L234A L235A)
heavy: EVKLDETGGGLVQPGRPMKLSCVASGFTFSDYWMNWVRQSPEKGLEWVAQIRNKPYNYETYYSDSVKGRFTISRDDSKSSVYLQMNNLRVEDMGIYYCTGSYYGMDYWGQGTSVTVSSASTKGPSVFPLAPSSKSTSGGTAALGCLVKDYFPEPVTVSWNSGALTSGVHTFPAVLQSSGLYSLSSVVTVPSSSLGTQTYICNVNHKPSNTKVDKKVEPKSCDKTHTCPPCPAPEAAGGPSVFLFPPKPKDTLMISRTPEVTCVVVDVSHEDPEVKFNWYVDGVEVHNAKTKPREEQYNSTYRVVSVLTVLHQDWLNGKEYKCKVSNKALPAPIEKTISKAKGQPREPQVYTLPPSWDEPWGEDVSLTCLVKGFYPSDIVVEWESNGQPENNYKTTPPVLDSDGSFFLYSKLTVPFERWMWPDEFSCSVMHEALHNHYTQKSLSLSPG
light: DVVMTQTPLSLPVSLGDQASISCRSSQSLVHSNGNTYLRWYLQKPGQSPKVLIYKVSNRFSGVPDRFSGSGSGTDFTLKISRVEAEDLGVYFCSQSTHVPWTFGGGTKLEIKRTVAAPSVFIFPPSDEQLKSGTASVVCLLNNFYPREAKVQWKVDNALQSGNSQESVTEQDSKDSTYSLSSTLTLSKADYEKHKVYACEVTHQGLSSPVTKSFNRGEC
notes: also called FS18-29/4420
B4: anti-mouse LAG-3/FITC mAb2 FS18-7-108-35/4420 comprising LALA mutation (bispecific antibody, human IgG1, kappa, L234A L235A)
heavy: B3 heavy with V379S
light: B3 light
notes: also called FS18-35/4420

What was measured:
[1] = molecular target: T1, human PD-L1 expressed on cells (human, UniProt Q9NZQ7 19-290); assay: cell-based or functional assay
T1 sequence (Q9NZQ7 19-290 limits assumed): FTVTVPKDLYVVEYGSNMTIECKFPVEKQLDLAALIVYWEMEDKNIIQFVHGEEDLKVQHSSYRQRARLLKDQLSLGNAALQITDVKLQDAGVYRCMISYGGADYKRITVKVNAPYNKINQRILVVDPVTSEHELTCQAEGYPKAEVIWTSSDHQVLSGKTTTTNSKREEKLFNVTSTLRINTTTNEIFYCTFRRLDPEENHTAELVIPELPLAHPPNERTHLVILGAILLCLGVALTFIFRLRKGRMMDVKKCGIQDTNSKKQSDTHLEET

[2] = molecular target: T1, human PD-L1 expressed on cells; assay: flow cytometry on HEK cells expressing human PD-L1
Description: (§1) HEK cells expressing human or cynomolgus PD-L1 grown in DMEM (Life Technologies, 61965-026) containing 10% FBS (Life Technologies, 10270-1-6), 100 μg/ml Hygromycin B (Melford Laboratories Ltd, Z2475), 15 μg/ml Blasticidin (Melford Laboratories Ltd, B1105) and 1 μg/ml Doxycyclin (Sigma, D9891) were detached from tissue culture flasks using cell dissociation buffer (Life Technologies, 13151-014) and seeded in V-bottom 96-well plates (Costar, 3897) at 2×10⁵ cells/well. The plates were centrifuged at 1500 rpm for 3 min at 4° C. to pellet the cells. A dilution series of the mAb² (or control mAb) was incubated with the cells in a 100 μl volume for 1 h at 4° C. The plates were washed and secondary antibody (Anti-human Fc-488, Jackson ImmunoResearch, 109-546-098) was diluted 1:1000 in PBS and 100 μl was added to the cells for 30 min at 4° C. (plates were kept in the dark). The plates were washed then cells were resuspended in 100 μl PBS containing 1 μg/ml DAPI (Biotium, 40043). The plates were read using Canto II flow cytometer (BD Bioscience). Dead cells were excluded and the fluorescence in the FITC channel (488 nm/530/30) was measured. The data was fit using log (agonist) vs response in GraphPad Prism Software. The plates were read on a BD FACSCanto II cytometer (BD Biosciences) and the data analysed using FlowJo.

[3] = molecular target: T2, cynomolgus PD-L1 expressed on cells (cynomolgus monkey, UniProt Q9NZQ7 19-290 (human entry)); assay: flow cytometry on HEK cells expressing cynomolgus PD-L1
T2 construct: also called cPD-L1; cyno PD-L1
T2 sequence (Q9NZQ7 other isoform, or with tags, fused parts or gaps limits assumed): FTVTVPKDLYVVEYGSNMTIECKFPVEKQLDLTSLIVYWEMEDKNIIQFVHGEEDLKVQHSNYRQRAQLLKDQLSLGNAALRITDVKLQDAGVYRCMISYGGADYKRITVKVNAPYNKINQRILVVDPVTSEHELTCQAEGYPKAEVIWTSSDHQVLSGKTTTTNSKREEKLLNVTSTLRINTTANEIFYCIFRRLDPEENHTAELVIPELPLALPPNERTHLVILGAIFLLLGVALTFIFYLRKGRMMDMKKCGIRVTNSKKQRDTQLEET
Description: as §1

[4] = molecular target: T3, human PD-L1 Fc (R&D Systems, 156-B7) (human, UniProt Q9NZQ7 19-239); assay: SPR, BIAcore T200; mAb2 captured on Protein L, PD-L1 Fc injected
T3 construct: Bought protein; not shown: Fc tag of the bought fusion protein
T3 sequence (Q9NZQ7 19-239 limits assumed): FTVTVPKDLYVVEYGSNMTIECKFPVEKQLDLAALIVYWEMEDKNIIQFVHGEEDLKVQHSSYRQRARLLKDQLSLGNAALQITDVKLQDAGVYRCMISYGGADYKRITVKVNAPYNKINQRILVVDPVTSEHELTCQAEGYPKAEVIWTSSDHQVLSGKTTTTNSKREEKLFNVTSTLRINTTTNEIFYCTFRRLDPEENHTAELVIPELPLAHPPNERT
Description: (§2) Protein L (Thermo, 21189) was immobilized on flow cells 1 and 2 of a Series S CM5 chip (GE Healthcare, BR-1005-30) by amine coupling (GE Healthcare, BR-1000-50) to a surface density of 2000 RU by following the manufacturer's instructions for the BIAcore T200 instrument. […] The association time was 3 min and the dissociation time was 6 min. Running buffer was HBS-P (GE Healthcare, BR-1003-68). Both flow cells were regenerated by injecting 10 mM sodium hydroxide (NaOH) at a flow rate of 100 μl/min for 20 seconds. The data were analysed by double referencing against the blank flow cell.
(§3) The binding kinetics were fit with a 1:1 Langmuir model to generate binding association (kₐ) and dissociation (kd) rates. Equilibrium binding constants (KD) were calculated by dividing the dissociation rate by the association rate for each sample. Data analysis was performed with BiaEvaluation software version 3.2.

[5] = molecular target: T4, recombinant Fc-tagged human LAG-3 (R&D Systems, 2319-L3-050) (human, UniProt P18627 23-450); assay: SPR, BIAcore T200; mAb2 captured on Protein L, human LAG-3 Fc injected
T4 construct: Bought protein; also called LAG-3 Fc; human LAG-3-Fc; not shown: Fc tag of the bought fusion protein
T4 sequence: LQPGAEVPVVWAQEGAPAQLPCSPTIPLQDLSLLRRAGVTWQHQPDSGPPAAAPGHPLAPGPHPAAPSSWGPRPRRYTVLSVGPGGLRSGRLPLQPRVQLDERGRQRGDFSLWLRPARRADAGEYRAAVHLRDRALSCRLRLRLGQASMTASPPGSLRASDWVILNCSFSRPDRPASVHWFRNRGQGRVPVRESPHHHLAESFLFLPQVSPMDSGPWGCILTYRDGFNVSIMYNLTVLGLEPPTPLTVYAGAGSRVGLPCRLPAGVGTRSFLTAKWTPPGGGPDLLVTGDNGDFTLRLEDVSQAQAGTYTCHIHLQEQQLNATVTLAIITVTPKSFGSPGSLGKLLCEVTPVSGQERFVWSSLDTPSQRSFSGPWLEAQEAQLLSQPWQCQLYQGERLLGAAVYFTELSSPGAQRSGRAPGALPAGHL
Description: as §2, §3

[6] = molecular target: T5, mouse LAG-3 expressed on cells (mouse, UniProt Q61790 24-521); assay: flow cytometry on HEK cells expressing murine LAG-3
T5 construct: also called mLAG-3; murine LAG-3 HEK
T5 sequence: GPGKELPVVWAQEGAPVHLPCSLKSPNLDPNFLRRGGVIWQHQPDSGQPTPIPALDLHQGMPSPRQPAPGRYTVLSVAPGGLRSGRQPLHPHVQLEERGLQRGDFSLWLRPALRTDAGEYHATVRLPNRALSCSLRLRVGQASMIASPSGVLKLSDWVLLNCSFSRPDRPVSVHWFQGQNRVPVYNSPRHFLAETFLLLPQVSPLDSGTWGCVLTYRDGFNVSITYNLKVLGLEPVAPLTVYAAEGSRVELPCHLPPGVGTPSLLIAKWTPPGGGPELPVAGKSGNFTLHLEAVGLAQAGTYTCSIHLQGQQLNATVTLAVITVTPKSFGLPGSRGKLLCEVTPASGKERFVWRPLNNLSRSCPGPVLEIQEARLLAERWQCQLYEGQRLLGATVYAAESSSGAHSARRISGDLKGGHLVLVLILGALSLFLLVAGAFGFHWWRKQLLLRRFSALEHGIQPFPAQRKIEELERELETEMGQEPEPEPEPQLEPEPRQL
Description: The affinity of the mAb² (all containing the LALA mutations) binding to cell expressed murine LAG-3 or murine PD-L1 was determined using flow cytometry. HEK cells expressing murine LAG-3 or murine PD-L1 grown in DMEM (Life Technologies, 61965-026) containing 10% FBS (Life Technologies, 10270-1-6), 100 μg/ml Hygromycin B (Melford Laboratories Ltd, Z2475), 15 μg/ml Blasticidin (Melford Laboratories Ltd, B1105) and 1 μg/ml Doxycyclin (Sigma, D9891) were detached from tissue culture flasks using cell dissociation buffer (Life Technologies, 13151-014) and seeded in V-bottom 96-well plates (Costar, 3897) at 2×10⁵ cells/well. The plates were centrifuged at 1500 rpm for 3 min at 4° C. to pellet the cells. A dilution series of the mAb² (or control mAb) were incubated with the cells in a 60 μl volume for 1 h at 4° C. The plates were washed and secondary antibody (Anti-human Fc-488, Jackson ImmunoResearch, 109-546-098 for mAb² or Anti-Rat IgG (H+L), Alexa Fluor 488, ThermoFisher, A-11006 for anti-LAG-3 control, C9B7W) was diluted 1:1000 in PBS and 50 μl was added to the cells for 30 min at 4° C. (plates were kept in the dark). The plates were washed then cells were resuspended in 50 μl FACS Cell Fix (BD Bioscience, 340181) for 15 minutes, then washed and resuspended in 100 μl PBS containing 1 μg/ml DAPI (Biotium, 40043). The plates were read using Canto II flow cytometer (BD Bioscience). Dead cells were excluded and the fluorescence in the FITC channel (488 nm/530/30) was measured. The data was fit using log (agonist) vs response in GraphPad Prism Software. The plates were read on a BD FACSCanto II cytometer (BD Biosciences) and the data analysed using FlowJo.

Row | Binder | Maximal IL2 release calculated as % ctrl (84G09 + 25F7) [1] [%] | EC50 [2] [nM] | EC50 [3] [nM] | Kd [4] [nM] | koff [4] [s⁻¹] | kon [4] [M⁻¹ s⁻¹] | Kd [5] [nM] | koff [5] [s⁻¹] | kon [5] [M⁻¹ s⁻¹] | EC50 [6] [nM]
1 | B1 | 71.6 | 3.91 | 2 | 3.5 | 0.00056 | 160000 | 0.038 | 0.00017 | 4.4e+06 | –
2 | B2 | 70.2 | 4 | 1.84 | 1.1 | 0.00014 | 130000 | 0.039 | 0.00023 | 5.9e+06 | –
3 | B3 | – | – | – | – | – | – | – | – | – | 2.29
4 | B4 | – | – | – | – | – | – | – | – | – | 2.38
